Measurements as given in patent publication US20150299264A1.
No end group written: not given here.

Target: 40 non-kinase enzyme assays, including phosphatases and proteases
Test: cell-based or functional assay
Settings: scale: % inhibition of activity at 100 µM MMI-0100

B1: MMI-0100 peptide (…; SEQ ID NO: 1) (peptide)
peptide: YARAAARQARAKALARQLGVAA
modifications: also: acetate salt
Question: How did the inhibition of activity in enzyme assays in the presence and absence of 100 µM MMI-0100 turn out when B1 was run?
Answer: < 50
